# Laboratory results published in US20100254992A1.
# Target: HuMCP-1-His6 Mutant-6 (66D → 66K) (human) (UniProt P13500)
# Assay: Biacore, CNTO 888 captured, MCP-1-His6 in solution
# Sequence of HuMCP-1-His6 Mutant-6 (66D → 66K) (human) (P13500 other isoform, or with tags, fused parts or gaps mutant, form in doubt): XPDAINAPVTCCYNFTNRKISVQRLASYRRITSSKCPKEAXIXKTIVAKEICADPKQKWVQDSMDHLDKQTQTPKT
substance,measurement,value
CNTO 888 (antibody),Kd,0.037 nM
same,koff,0.000186 s⁻¹
same,kon,5.09e+06 M⁻¹ s⁻¹
